Test results taken from the supplement of paper PMC9170038.

Tested on: MS2 coat protein
Assay: apparent KD of MS2 coat protein; higher = weaker reporter binding
Settings: Eterna round: R107
How it was run: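 Designed RNA switches were transcribed on-chip from Illumina sequencing clusters. They were then titrated with SNAP-549-labelled MS2 coat protein (twofold steps, 0.7 or 1.5 nM to 3 µM; 0.8–1.5 h to 10–20 min per step) in 100 mM Tris-HCl pH 7.5, 80 mM KCl, 4 mM MgCl2, without or with constant ligand. Apparent KD is the per-design median of normalised cluster binding-curve fits.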

[1] = input ligand: theophylline 20 uM
[2] = input ligand: theophylline 2 mM
[3] = input ligand: tryptophan 2.4 mM

Row | Sequence | apparent KD of MS2 coat protein (input ligand: arginine 13.2 mM) [nM] | apparent KD of MS2 coat protein (input ligand: none) [nM] | apparent KD of MS2 coat protein [1] [nM] | apparent KD of MS2 coat protein [2] [nM] | apparent KD of MS2 coat protein [3] [nM]
1 | GGAUAGGACACGGCCGCCACUGCCUAGGAUACUAGCAACAUUUGGGUACAAGAGGAUCACCCUUGUAGGACCGGGUGUCCUAUCG | 27.1 | 25 | 38.6 | 29.3 | 26
2 | AGUGUUGUCUGAAGGAGCGGCCCUUGAUCCUCAUGAGACAUGAGGAUCACCCAUGUCUCGGGCCAGGUAGGUCGCAGGCAUCACA [Omei Arg B SS v1] | 22.6 | 20.5 | 34.1 | 23.3 | 23.7
3 | UGUAACAUGAGGAUCACCCAUGUGAGUGAUACCAGACUAGUGUUGGUCCCUUGGCAGCACGCUGGGCGAGUGUGUAGUCUAUGCG [Same State - Theophylline A (Freestyle 17)] | 64.5 | – | 100 | – | 80.5
4 | GACAUAUGCUAUGCGCAGGCUACCCUCAGCCGAGGACCGGUACGGCCGCCACUCGUACUACCACAUGAGGAUCACCCAUGUUAUC [theeternabot_exclusion_MS2_Trp_A_29] | 20.1 | – | 28.4 | 23.9 | –
5 | CCUAUGCAGUCGGCCGCCACUGAACAUGAGGAUCACCCAUGUUAUUAUAAAUAUGGUCCUAAAAUCAGGACCGGGACUGUAUAGG [Ex Tryptophan B 8] | 42.7 | – | 67.9 | 90 | –
6 | AAGGUGAUCCCAGAUACCAGCCUAACAUGAGGAUCACCCAUGUUUGGGACGAAAGUCCCAGGCCCUUGGCAGCUGGGUUGCCAAG [SSTheo B #17] | 48.8 | – | 131 | – | 185
7 | GGGCAAGAGGGAAGGAGCGUCAGCUGAGUCACAUGAGGAUCACCCAUGUCGCACAUAGUGUGACAGGUAGGUCGCCCUCUACCCU [Esceinan] | 57.8 | 124 | 167 | 107 | 89.3
8 | UCGACAGUGAACGAUACCAGCGUCACGUGGCCGGUGGUCACAUGAGGAUCACCCAUGUAACGCCCUUGGCAGCGUGCACGUAUCC [Berisoor] | 17.5 | – | 78 | – | 25.5
9 | AGCCACUCGAGUGAUCCUCACGAGUGGCUACGAGGACCGGUACGGCCGCCACUCGAAUUAACAUGAGGAUCACCCAUGUAAUAAU [Brourdmod03] | 29.2 | – | 188 | 270 | –
10 | ACAUUUAACUGAAGGAGCGUGAUAUGUACAUGAGGAUCACCCAUGUCUUACAUGUGAUAUUCACAGGUAGGUCGCAGACUAAUGA [JR_ExcArginiB_Sub004] | 22.7 | 18.8 | 23.2 | 23 | 20.3
11 | AUACAUGAGGAUCACCCAUGUGAUGGCCGGCGAGGACCGGUACGGCCGCCACUCGUGAUCCGUCCCGAGAGCAAAGCUCUCGACA [Raatala] | 4.9 | 53.7 | 436 | 1080 | 50.3
12 | ACGAACGCACCUGAGGAUCACCCAGGUGAUACCAGCCUGGAAACAGGCCCUUGGCAGCACCUAAAAUAAAGGUAACGUUCGAAUA [TheoAX7 #MicroSwitchBubble #AlternativeMS2] | 41.1 | 74.2 | 165 | 173 | 61.9
13 | GCAUCCUAGUCGGCCGCCACUGGUAUGAACACCUUCACCCGUGUGCACAUGAGGAUCACCCAUGUUAGGACCGGGACUAGGAUGC [SSTryp B #20] | 10 | – | 11.2 | 9.67 | –
14 | GAGCUGAUGUAGGCCGGAUAUCCGGGAGAUACCAGUACAGAAAUGUACCCUUGGCAGCUCUUUCCUACAUGAGGAUCACCCAUGU [Ex Theophylline A 28] | 17 | – | 21.7 | – | 17.8
15 | GUCAGAACAUAUCAUGUUCUGGCACUGGAAGGAGCGAGCGAGAGCUCAGGUAGGUCGCCAGAACAUGAGGAUCACCCAUGUAAUA [(A)''-(M)'-(A)'(Arg1)-(Arg2)-(M1)-(M2)_Design11] | 50.5 | 63.4 | 95.2 | 296 | 49
16 | GUUAUGGACCUGGAUACCAGCUGGUACAAGGGCGGUCUACAUGAGGAUCACCCAUGUGUCAGCCCUUGGCAGCCAGCAACCGGCA [Teraus] | 9.36 | – | 12.5 | – | 8.95
17 | AUACAUGAGGAUCACCCAUGUAUAGUUGAAGGAGCGACCAGAGGGUCAGGUAGGUCGCAACACAUGAGGAUCACCCAUGUAUCGA [DOUBLE!!! :-D #7] | 30 | 49.9 | 52.9 | 47.5 | 34.6
18 | CUCUGAGUCCGCAAGGACUCAGAGGCGGAUACCAGCGAGGUCCAUCGCCCUUGGCAGCCGAACAUGAGGAUCACCCAUGUCGGUA [#1 Same State - Theophylline A Attempt #27 (HarryS)] | 8.89 | – | 14.5 | – | 10.9
19 | GAUUACAUGAGGAUCACCCAUGUAACUGAAGGAGCGGUAAUAAAGCCAGGUAGGUCGCAGAACGACAUGUGGUUCAUCCAUGUAA [#15 Exclusion - Arginine A] | 14.3 | 39.1 | 46.9 | 35.5 | 30.4

Row | Sequence | apparent KD of MS2 coat protein (input ligand: arginine 13.2 mM) [nM] | apparent KD of MS2 coat protein (input ligand: none) [nM] | apparent KD of MS2 coat protein [1] [nM] | apparent KD of MS2 coat protein [2] [nM] | apparent KD of MS2 coat protein [3] [nM]
20 | AUGUCGUUGAAUAUAGCGGCUUGGUGUGAUACCAGAAUGAUCUAAUUCCCUUGGCAGCAUUACAUGAGGAUCACCCAUGUUUAGG [SSTheo A #19] | 24.4 | – | 29.6 | – | 28.8
21 | ACAUGUUGGUGGUAUCUACGAAGGCGGAAACGAGGACCGGUACGGCCGCCACUCGGCGACAUGAGGAUCACCCAUGUGGUUAAAA [Exclusion - Tryptophan A (Freestyle 5)] | 28.8 | – | 96.9 | 254 | –
22 | GAAGACAUGAGGAUCACCCAUGUUACACACCGAGGACCGGUACGGCCGCCACUCGUAGGCCCUCGGCUCACCUGAGAUCCGCAUC [theeternabot_sameState_MS2_Trp_A_11] | 17.5 | – | 31.8 | 31.9 | –
23 | UAUCCACAUGAGGAUCACCCAUGUUAGGAAGGAGCGGUGAAUGAACCAGGUAGGUCGCCUAGCUGAGGACCGUCGAUGGAUUCGU [Exclusion - Arginine A (Freestyle 16)] | 13.7 | 27.3 | – | 28.2 | 18.4
24 | CGGUCGGUCGGCCGGUGAUUAUGGGAUGAAGGAGCGUGGGAAGCUACAGGUAGGUCGCAUCCGAAACAUCACGAUCACGGAUGUU [SSArg A #26Alt-Ms2 Mod] | 46.3 | – | 134 | 101 | 72.4
25 | AUCGCACCUGGUGAUACCAGCAAUUGCUCGUGACAUGAGGAUCACCCAUGUGGCCAGUGAUGCCCUUGGCAGCAUGGUCGGUGCA [Same State - Theophylline B (Freestyle 25)] | 98.2 | 317 | 335 | 64.5 | 288
26 | UACAUGAGGAUCACCCAUGUCCCAUGUGAACGAGGACCGGUACGGCCGCCACUCGACCGAGGCGGCACAUGAGGAUCACCCGCAU [whbob_SS_trypto A_2s15] | 121 | – | 917 | 1140 | –
27 | GGGCGCGUGGACCGGCGUGCUCCGCUCCGUCGAGGACCGGUACGGCCGCCACUCGACAUGAGGAUCACCCAUGUGCGAGCUCGCG [#1 Exclusion - Tryptophan A Attempt #15 (HarryS)] | 16.2 | 19.3 | 39.8 | 32.1 | 191
28 | AAUAACAUGAGGAUCACCCAUGUAAAAGAUACCAGAUGCAUGAUGAUCCCUUGGCAGCUUAACGCUGAUUGGAAACAAUCAGCGA [Mat - Same State Theophlline A - Mod of Eli - D9] | 175 | – | 62.1 | – | 14.7
29 | AACCGAGGCUAUCCUCUCCGCCUAUGUGAUACCAGAAUAAUUUUAUUCCCUUGGCAGCAUGACAUGAGGAUCACCCAUGUCUCUU [SSTheo A #11] | 15.2 | – | 19.4 | – | 17.3
30 | UGUAACAUGAGGAUCACCCAUGUGAGUGAUACCAGAUAAGUAGUAGUCCCUUGGCAGCAUAUUGGGCGAGUGUAUAGUCUAUGCG [Same State - Theophylline A (Freestyle 9)] | 125 | – | 207 | – | 152
31 | UGCCCUGCGAGCGCUCGCAGGGCAGCGGAUACCAGCGAGGUCCAUCGCCCUUGGCAGCCGAACAUGAGGAUCACCCAUGUCGGUG [Same State - Theophylline A Attempt #9 (HarryS)] | 11.4 | 14.1 | 18.9 | 144 | 13.2
32 | CUGCCAUGCAGGGAUACCAGUGCGUUCAGAACAUGAGGAUCACCCAUGUCGUCUGCCGAUCACCCUUGGCAGCUCUGCAUGGCAG [#05 Same State - Theophylline B] | 9.22 | 9.69 | 9.45 | 9.73 | 9.91
33 | AGUGUAUCCAUCGAUACCAGCCACAACGUAACAUACACAUGAGGAUCACCCAUGUUGUGUGGCCCUUGGCAGCGGUGCCUGUGUA [Same State - Theophylline B Attempt #1 (HarryS)] | 14.4 | – | 16.4 | – | 13.9
34 | AAAGAACAUGAGGAUCACCCAUGUACCGAAGGAGCGGCGAAGAAGCCAGGUAGGUCGCGGAACAUGAAGCGAUUAAGAAUUAAUU | 21.5 | 19.3 | 25.7 | 21 | 20.4
35 | CCGUAGCUAGGAAGGAGCGCAUACUUCACAUGAGGAUCACCCAUGUCGAGACGUGAGUCAGUGCAGGUAGGUCGCCUAGCUAUGG [Same State - Arginine B (Freestyle 28)] | 23.5 | 15.5 | 26.4 | 30.5 | 15.7
36 | CAAUCUACCACCGGCCUACUGUACACUCGCCGAGGACCGGUACGGCCGCCACUCGACGUUCGACAUGAGGAUCACCCAUGUGGGU [theeternabot_exclusion_MS2_Trp_A_14] | 80.1 | – | 200 | 289 | –
37 | AGCUGGGAUCCUCAGCGUCAAAGACGCAGUCGAGGACCGGUACGGCCGCCACUCGACACGAGGAUCACCCGUGUCAUUCCCAGCA [TrypAX 1 #SwitchBubble #AlternativeMS2 #MS2Late #CuTurnoff] | 34.5 | – | 387 | 584 | 1460
